Measurements taken from patent US20100248359A1 (Chugai, published 2010).
Where two headings read alike, the source gives them in different places.

What was measured:
[1] = target: T1, soluble form of GPC3 core protein (human, UniProt P51654 25-563); test: ELISA on plate coated with soluble GPC3 core protein
T1 construct: not shown: His tag added to the C-terminus

full-length human GPC3 [2] = target: T2, full-length human GPC3 (human, UniProt P51654 25-554); test: flow cytometry, antibody at 5 µg/mL, HuH-7 cells
T2 construct: On CHO (DXB11) or SK-HEP-1 (SK-03) transfectants; also used here for the GPC3 on the hepatoma lines HepG2 and HuH-7; also called human glypican 3

full-length human GPC3 [3] = target: T2, full-length human GPC3; test: flow cytometry, antibody at 5 µg/mL, CHO cells expressing human GPC3 (column CHO/human GPC3)
[4] = target: T1, soluble form of GPC3 core protein; test: competitive ELISA on coated soluble GPC3 core protein; labelled competitor biotin-M18D4;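 note: Biotin-labelled antibody added as 10 µL at 10 µg/mL for 1 h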
[5] = target: T3, GC-3 (GST fusion of GPC3 Ala524 to Lys563) (human, UniProt P51654 524-563); test: Western blotting of GST-fusion proteins, reducing SDS-PAGE
T3 construct: not shown: GST as encoded by pGEX-4T-3 (Amersham), N-terminal to the GPC3 peptide
T3 chain: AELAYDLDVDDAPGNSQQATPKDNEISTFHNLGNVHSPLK

[6] = target: T1, soluble form of GPC3 core protein; test: competitive ELISA on coated soluble GPC3 core protein; labelled competitor biotin-M1E7;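 note: Biotin-labelled antibody added as 10 µL at 10 µg/mL for 1 h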
[7] = target: T1, soluble form of GPC3 core protein; test: competitive ELISA on coated soluble GPC3 core protein; labelled competitor biotin-M6B1;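 note: Biotin-labelled antibody added as 10 µL at 10 µg/mL for 1 h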
full-length human GPC3 [8] = target: T2, full-length human GPC3; test: flow cytometry, antibody at 5 µg/mL, HepG2 cells
full-length human GPC3 [9] = target: T2, full-length human GPC3; test: BIACORE; the form of GPC3 used is not given
[10] = target: T1, soluble form of GPC3 core protein; test: competitive ELISA on coated soluble GPC3 core protein; labelled competitor biotin-M3C11;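 note: Biotin-labelled antibody added as 10 µL at 10 µg/mL for 1 h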
[11] = target: T1, soluble form of GPC3 core protein; test: competitive ELISA on coated soluble GPC3 core protein; labelled competitor biotin-L9G11;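 note: Biotin-labelled antibody added as 10 µL at 10 µg/mL for 1 h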
[12] = target: T1, soluble form of GPC3 core protein; test: competitive ELISA on coated soluble GPC3 core protein; labelled competitor biotin-M10D2;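 note: Biotin-labelled antibody added as 10 µL at 10 µg/mL for 1 h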
[13] = target: T1, soluble form of GPC3 core protein; test: competitive ELISA on coated soluble GPC3 core protein; labelled competitor biotin-M11F1;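 note: Biotin-labelled antibody added as 10 µL at 10 µg/mL for 1 h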
[14] = target: T1, soluble form of GPC3 core protein; test: competitive ELISA on coated soluble GPC3 core protein; labelled competitor biotin-M5B9;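 note: Biotin-labelled antibody added as 10 µL at 10 µg/mL for 1 h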
[15] = target: T1, soluble form of GPC3 core protein; test: ELISA on GPC3 (the legend says only GPC3; the filing's ELISA uses plates coated with soluble GPC3 core protein) [upper panel]
[16] = target: T1, soluble form of GPC3 core protein; test: ELISA on GPC3 (the legend says only GPC3; the filing's ELISA uses plates coated with soluble GPC3 core protein) [lower panel]
[17] = target: T1, soluble form of GPC3 core protein; test: ELISA on plate coated with soluble GPC3 core protein; antibody from COS7 culture supernatant [upper right panel]
full-length human GPC3 [18] = target: T2, full-length human GPC3; test: flow cytometry, antibody at 5 µg/mL, CHO cells expressing human GPC3 (column CHO/human GPC3); remark: listed apart in the source
[19] = target: T1, soluble form of GPC3 core protein; test: ELISA on plate coated with soluble GPC3 core protein; remark: listed apart in the source
full-length human GPC3 [20] = target: T2, full-length human GPC3; test: flow cytometry, antibody at 5 µg/mL, HuH-7 cells; remark: listed apart in the source
full-length human GPC3 [21] = target: T2, full-length human GPC3; test: flow cytometry, antibody at 5 µg/mL, HepG2 cells; remark: listed apart in the source

T2 sequence (P51654 25-554 limits assumed): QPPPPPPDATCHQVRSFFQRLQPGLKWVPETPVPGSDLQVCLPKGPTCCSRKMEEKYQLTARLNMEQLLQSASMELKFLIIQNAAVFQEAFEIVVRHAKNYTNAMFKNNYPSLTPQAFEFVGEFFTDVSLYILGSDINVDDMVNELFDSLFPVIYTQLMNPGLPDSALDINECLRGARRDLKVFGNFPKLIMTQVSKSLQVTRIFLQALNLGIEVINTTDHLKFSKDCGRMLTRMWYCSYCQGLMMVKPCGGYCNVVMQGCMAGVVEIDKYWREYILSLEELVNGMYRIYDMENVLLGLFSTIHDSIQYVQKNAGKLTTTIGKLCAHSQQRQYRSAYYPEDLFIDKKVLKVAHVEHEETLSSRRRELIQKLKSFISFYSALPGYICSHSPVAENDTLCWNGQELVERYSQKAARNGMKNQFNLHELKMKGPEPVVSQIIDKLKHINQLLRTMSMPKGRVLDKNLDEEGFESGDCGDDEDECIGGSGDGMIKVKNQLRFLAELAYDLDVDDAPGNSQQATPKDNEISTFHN

B1: M3C11 (antibody, human IgG1, kappa, V domains shown)
VH: EVQLVESGGGLVKPGGSLKLSCAASGFTFSRYAMSWVRQIPEKILEWVAAIDSSGGDTYYLDTVKDRFTISRDNANNTLHLQMRSLRSEDTALYYCVRQGGAYWGQGTLVTVSA
VL: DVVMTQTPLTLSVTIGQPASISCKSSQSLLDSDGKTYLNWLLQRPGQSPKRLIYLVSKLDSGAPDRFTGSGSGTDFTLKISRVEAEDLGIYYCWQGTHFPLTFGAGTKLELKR
notes: Mouse monoclonal from hybridoma
In the case of B1, the EC50 [1] is reported as 0.12 nM, the “FACS X-mode value of the histogram” value (full-length human GPC3 [2]) is reported as 9 and the “FACS X-mode value of the histogram” value (full-length human GPC3 [3]) is reported as 83. The “Inhibition of the binding of indicated biotin-Mab to sGPC3 core (%)” value (“Inhibition of the binding … (%)” for short) [4] was 10.3%, the binding result [5] was “no binding” and the “Inhibition of the binding … (%)” value [6] was 96.2%. The “Inhibition of the binding … (%)” value [7] was 11.2%, the “FACS X-mode value of the histogram” value (full-length human GPC3 [8]) was 59 and the Kd (full-length human GPC3 [9]) was 0.3 nM. The koff (full-length human GPC3 [9]) was 6.5e-05 s⁻¹, the kon (full-length human GPC3 [9]) was 250000 M⁻¹ s⁻¹ and the “Inhibition of the binding … (%)” value [10] was 96.8%. The “Inhibition of the binding … (%)” value [11] was 33.1%, the “Inhibition of the binding … (%)” value [12] was 39.9% and the “Inhibition of the binding … (%)” value [13] was 12%. The “Inhibition of the binding … (%)” value [14] was 9.1%.

B2: GC33 mouse-human chimeric antibody (antibody, V domains shown)
VH: QVQLQQSGAELVRPGASVKLSCKASGYTFTDYEMHWVKQTPVHGLKWIGALDPKTGDTAYSQKFKGKATLTADKSSSTAYMELRSLTSEDSAVYYCTRFYSYTYWGQGTLVTVSA
VL: DVVMTQTPLSLPVSLGDQASISCRSSQSLVHSNGNTYLHWYLQKPGQSPKLLIYKVSNRFSGVPDRFSGSGSGTDFTLKISRVEAEDLGVYFCSQNTHVPPTFGSGTKLEIK
notes: also called chimeric antibody GC33; mouse/mouse
In the case of B2, the “EC50 (read off the curve)” value [15] is reported as ~10 ng/mL.

B3: humanized GC33 H chain ver.c / L chain ver.a (antibody, V domains shown)
VH: QVQLVESGAEVKKPGASVKVSCKASGYTFTDYEMHWVRQAPGQGLEWMGALDPKTGDTAYSQKFKGRVTLTADESTSTAYMELSSLRSEDTAVYYCTRFYSYTYWGQGTLVTVSS
VL: DVVMTQSPLSLPVTPGEPASISCRSSQSLVHSNGNTYLHWYLQKPGQSPQLLIYKVSNRFSGVPDRFSGSGSGTDFTLKISRVEAEDVGVYYCSQNTHVPPTFGQGTKLEIK
In the case of B3, the “EC50 (read off the curve)” value [15] is reported as ~10 ng/mL.

B4: humanized GC33 H chain ver.f / L chain ver.a (antibody, V domains shown)
VH: QVQLVESGAEVKKPGASVKVSCKASGYTFTDYEMHWVRQAPGQGLEWMGALDPKTGDTAYSQKFKGRVTLTADKSTSTAYMELSSLRSEDTAVYYCTRFYSYTYWGQGTLVTVSS
VL: DVVMTQSPLSLPVTPGEPASISCRSSQSLVHSNGNTYLHWYLQKPGQSPQLLIYKVSNRFSGVPDRFSGSGSGTDFTLKISRVEAEDVGVYYCSQNTHVPPTFGQGTKLEIK
In the case of B4, the “EC50 (read off the curve)” value [15] is reported as ~10 ng/mL.

B5: humanized GC33 H chain ver.h / L chain ver.a (antibody, V domains shown)
VH: QVQLVESGAEVKKPGASVKVSCKASGYTFTDYEMHWVRQAPGQGLEWMGALDPKTGDTAYSQKFKGRVTLTADKSTSTAYMELSSLTSEDTAVYYCTRFYSYTYWGQGTLVTVSS
VL: DVVMTQSPLSLPVTPGEPASISCRSSQSLVHSNGNTYLHWYLQKPGQSPQLLIYKVSNRFSGVPDRFSGSGSGTDFTLKISRVEAEDVGVYYCSQNTHVPPTFGQGTKLEIK
In the case of B5, the “EC50 (read off the curve)” value [16] is reported as ~30 ng/mL.

B6: humanized GC33 H chain ver.i / L chain ver.a (antibody, V domains shown)
VH: QVQLVQSGAEVKKPGASVKVSCKASGYTFTDYEMHWVRQAPGQGLEWMGALDPKTGDTAYSQKFKGRVTLTADESTSTAYMELSSLRSEDTAVYYCTRFYSYTYWGQGTLVTVSS
VL: DVVMTQSPLSLPVTPGEPASISCRSSQSLVHSNGNTYLHWYLQKPGQSPQLLIYKVSNRFSGVPDRFSGSGSGTDFTLKISRVEAEDVGVYYCSQNTHVPPTFGQGTKLEIK
In the case of B6, the “EC50 (read off the curve)” value [16] is reported as ~30 ng/mL.

B7: humanized GC33 ver.a/ver.a (antibody, V domains shown)
VH: QVQLVESGAEVKKPGASVKVSCKASGYTFTDYEMHWVRQAPGQGLEWMGALDPKTGDTAYSQKFKGRVTITADESTSTAYMELSSLRSEDTAVYYCARFYSYTYWGQGTLVTVSS
VL: DVVMTQSPLSLPVTPGEPASISCRSSQSLVHSNGNTYLHWYLQKPGQSPQLLIYKVSNRFSGVPDRFSGSGSGTDFTLKISRVEAEDVGVYYCSQNTHVPPTFGQGTKLEIK
notes: Human IgG (HEFg gamma1 vector) and human kappa constant regions
For B7, the “EC50 (read off the curve)” value [15] was ~100 ng/mL.

B8: modified humanized GC33 (H chain ver.k, L chain G34E) (antibody, human IgG1, V domains shown)
VH: QVQLVQSGAEVKKPGASVKVSCKASGYTFTDYEMHWVRQAPGQGLEWMGALDPKTGDTAYSQKFKGRVTLTADKSTSTAYMELSSLTSEDTAVYYCTRFYSYTYWGQGTLVTVSS
VL: DVVMTQSPLSLPVTPGEPASISCRSSQSLVHSNENTYLHWYLQKPGQSPQLLIYKVSNRFSGVPDRFSGSGSGTDFTLKISRVEAEDVGVYYCSQNTHVPPTFGQGTKLEIK
notes: COS7 supernatant; human IgG1/kappa
With B8 the “EC50 (read off the curve)” value [17] was ~20 ng/mL.

B9: modified humanized GC33 (H chain ver.k, L chain G34F) (antibody, human IgG1, V domains shown)
VH: QVQLVQSGAEVKKPGASVKVSCKASGYTFTDYEMHWVRQAPGQGLEWMGALDPKTGDTAYSQKFKGRVTLTADKSTSTAYMELSSLTSEDTAVYYCTRFYSYTYWGQGTLVTVSS
VL: DVVMTQSPLSLPVTPGEPASISCRSSQSLVHSNFNTYLHWYLQKPGQSPQLLIYKVSNRFSGVPDRFSGSGSGTDFTLKISRVEAEDVGVYYCSQNTHVPPTFGQGTKLEIK
notes: as for B8
B9 was tested, and the “EC50 (read off the curve)” value [17] was ~20 ng/mL.

B10: GC33 mouse H chain variable region / humanized L chain ver.a (antibody, V domains shown)
VH: QVQLQQSGAELVRPGASVKLSCKASGYTFTDYEMHWVKQTPVHGLKWIGALDPKTGDTAYSQKFKGKATLTADKSSSTAYMELRSLTSEDSAVYYCTRFYSYTYWGQGTLVTVSA
VL: DVVMTQSPLSLPVTPGEPASISCRSSQSLVHSNGNTYLHWYLQKPGQSPQLLIYKVSNRFSGVPDRFSGSGSGTDFTLKISRVEAEDVGVYYCSQNTHVPPTFGQGTKLEIK
notes: also called mouse/ver.a
With B10 the “EC50 (read off the curve)” value [16] was ~30 ng/mL.

B11: M10D2 (antibody, V domains shown)
VH: QVQLQQPGAELVKPGASVKLSCKASGYTFTSYWMHWVKQRPGQGLEWIGEIDPSDSYTYYNQKFRGKATLTVDKSSNTAYMQLSSLTSEDSAVYYCSRSNLGDGHYRFPAFPYWGQGTLVTVSA
VL: DIVLTQSPATLSVTPGDRVSLSCRASHSISNFLHWYPQKSHESPRLLIKYASQSISGIPSRFSGNGSGTDFTLSINSVETEDFGMYFCQQSNIWSLTFGAGTKLELK
notes: as for B1
In the case of B11, the EC50 [1] is reported as 1.04 nM, the “FACS X-mode value of the histogram” value (full-length human GPC3 [2]) is reported as 3 and the “FACS X-mode value of the histogram” value (full-length human GPC3 [3]) is reported as 20. The “Inhibition of the binding … (%)” value [4] was -21.6%, the “Inhibition of the binding … (%)” value [6] was 0.6% and the “Inhibition of the binding … (%)” value [7] was -5.9%. The “FACS X-mode value of the histogram” value (full-length human GPC3 [8]) was 29, the Kd (full-length human GPC3 [9]) was 4.7 nM and the koff (full-length human GPC3 [9]) was 0.000496 s⁻¹. For the same binder, the kon (full-length human GPC3 [9]) was 110000 M⁻¹ s⁻¹, the “Inhibition of the binding … (%)” value [10] was -7.7% and the “Inhibition of the binding … (%)” value [11] was 7.2%. The “Inhibition of the binding … (%)” value [12] was 79.2%, the “Inhibition of the binding … (%)” value [13] was 7.8% and the “Inhibition of the binding … (%)” value [14] was -10.3%.

B12: GC194 (antibody, V domains shown)
VH: EVQLVETGGGLVQPKGSLKLSCAASGFTFNASAMNWVRQAPGKGLEWVARIRSKSNNYAIYYADSVKDRFTISRDDSQSMLYLQMNNLKTEDTAMYYCVRDPGYYGNPWFAYWGQGTLVTVSA
VL: DIVMTQAAFSNPVTLGTSASISCRSSKSLLHSYDITYLYWYLQKPGQSPQLLIYQMSNLASGVPDRFSSSGSGTDFTLRISRVEAEDVGVYYCAQNLELPPTFGGGTKLEIK
In the case of B12, the “FACS X-mode value of the histogram” value (full-length human GPC3 [18]) is reported as 5, the EC50 [19] is reported as 3.83 nM and the “FACS X-mode value of the histogram” value (full-length human GPC3 [20]) is reported as 1.5. For the same binder, the “FACS X-mode value of the histogram” value (full-length human GPC3 [21]) was 7.9.
